Assay results reported in patent US20130196348A1 (ACTELION PHARMACEUTICALS, published 2013).
Blank lines part the entries; values can stand above or below the binder they belong to.

Target: T1, human GALR2 (Galanin Receptor 2) (human, UniProt O43603 1-387)
T1 sequence: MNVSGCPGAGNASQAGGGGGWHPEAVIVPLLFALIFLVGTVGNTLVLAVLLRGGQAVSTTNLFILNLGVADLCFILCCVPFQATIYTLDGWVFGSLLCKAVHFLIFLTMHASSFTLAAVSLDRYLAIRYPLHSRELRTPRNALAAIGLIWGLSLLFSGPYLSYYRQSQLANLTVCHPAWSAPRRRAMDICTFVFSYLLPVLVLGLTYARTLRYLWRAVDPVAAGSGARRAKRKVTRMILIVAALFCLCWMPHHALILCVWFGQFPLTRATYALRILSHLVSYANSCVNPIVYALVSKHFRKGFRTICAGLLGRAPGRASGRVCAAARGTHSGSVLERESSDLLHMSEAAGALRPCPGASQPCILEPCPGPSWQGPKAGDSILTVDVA
Assay: cell-based or functional assay

FLIPR EC50: 0.05 nM
B1: NWPPQAMLYLKGAQG (SEQ ID NO: 34) (peptide)
peptide: NWPPQAMLYLKGAQG

FLIPR EC50: 0.7 nM
B2: AWTPQAMLYLKGAQG (SEQ ID NO: 23) (peptide)
peptide: AWTPQAMLYLKGAQG

FLIPR EC50: 4.8 nM
B3: WTPQAMLYLKGAQG (SEQ ID NO: 22) (peptide)
peptide: WTPQAMLYLKGAQG

FLIPR EC50: 0.3 nM
B4: NWTPQAMLYLKGAQP (SEQ ID NO: 41) (peptide)
peptide: NWTPQAMLYLKGAQP

Aequorin EC50: 5.7 nM
FLIPR EC50: 4.2 nM
B5: human Neuropeptide Q-Glycine (SEQ ID NO: 14) (peptide)
peptide: NWTPQAMLYLKGAQG

FLIPR EC50: 55 nM
B6: NWTPQPMLYLKGAQG (SEQ ID NO: 36) (peptide)
peptide: NWTPQPMLYLKGAQG

FLIPR EC50: 47 nM
B7: NWTPQAMLYLKAAQG (SEQ ID NO: 30) (peptide)
peptide: NWTPQAMLYLKAAQG

FLIPR EC50: 0.1 nM
B8: PWTPQAMLYLKGAQG (SEQ ID NO: 33) (peptide)
peptide: PWTPQAMLYLKGAQG

FLIPR EC50: 9.6 nM
B9: NWTPQAMLYLAGAQG (SEQ ID NO: 29) (peptide)
peptide: NWTPQAMLYLAGAQG

FLIPR EC50: 14 nM
B10: NWTPQAMLYL (SEQ ID NO: 21) (peptide)
peptide: NWTPQAMLYL

FLIPR EC50: 296 nM
B11: NWTPQAMLYLPGAQG (SEQ ID NO: 37) (peptide)
peptide: NWTPQAMLYLPGAQG

Aequorin EC50: 5.06 nM
B12: rat Neuropeptide Q (SEQ ID NO: 15) (peptide)
peptide: NWTPQAMLYLKGAQGH

FLIPR EC50: 97 nM
B13: NWTPPAMLYLKGAQG (SEQ ID NO: 35) (peptide)
peptide: NWTPPAMLYLKGAQG

FLIPR EC50: 0.2 nM
B14: NWTPQAMLYLKGAPG (SEQ ID NO: 40) (peptide)
peptide: NWTPQAMLYLKGAPG

FLIPR EC50: 3.4 nM
B15: NWTPQAALYLKGAQG (SEQ ID NO: 27) (peptide)
peptide: NWTPQAALYLKGAQG

FLIPR EC50: 0.8 nM
B16: NWTPQAMAYLKGAQG (SEQ ID NO: 28) (peptide)
peptide: NWTPQAMAYLKGAQG

FLIPR EC50: 4.3 nM
B17: NWTPQAMLYLKGA (SEQ ID NO: 18) (peptide)
peptide: NWTPQAMLYLKGA

FLIPR EC50: 10.9 nM
B18: NWAPQAMLYLKGAQG (SEQ ID NO: 24) (peptide)
peptide: NWAPQAMLYLKGAQG

FLIPR EC50: 0.3 nM
B19: NWTPQAMLYLKGPQG (SEQ ID NO: 39) (peptide)
peptide: NWTPQAMLYLKGPQG

FLIPR EC50: 20 nM
B20: NWTPQAMLYLKPAQG (SEQ ID NO: 38) (peptide)
peptide: NWTPQAMLYLKPAQG

FLIPR EC50: 6.7 nM
B21: NWTPQAMLYLKG (SEQ ID NO: 19) (peptide)
peptide: NWTPQAMLYLKG

Aequorin EC50: > 10000 nM
B22: human pro Neuropeptide Q (73-116) (SEQ ID NO: 17) (peptide)
peptide: SPNPQLLTIPEAATILLASLQKSPEDEEKNFDQTRFLEDSLLNW

FLIPR EC50: 1.9 nM
B23: NWTPQAMLYLK (SEQ ID NO: 20) (peptide)
peptide: NWTPQAMLYLK

FLIPR EC50: 0.1 nM
B24: NWTPQAMLYLKGAAG (SEQ ID NO: 31) (peptide)
peptide: NWTPQAMLYLKGAAG

FLIPR EC50: 3.6 nM
B25: NWTAQAMLYLKGAQG (SEQ ID NO: 25) (peptide)
peptide: NWTAQAMLYLKGAQG

FLIPR EC50: 12.5 nM
B26: NWTPAAMLYLKGAQG (SEQ ID NO: 26) (peptide)
peptide: NWTPAAMLYLKGAQG

Aequorin EC50: 17.6 nM
B27: human pro Neuropeptide Q (36-58) (SEQ ID NO: 16) (peptide)
peptide: NWTPQAMLYLKGAQGRRFISDQS

FLIPR EC50: 2 nM
B28: NWTPQAMLYLKGAQA (SEQ ID NO: 32) (peptide)
peptide: NWTPQAMLYLKGAQA
